The record followed here is patent US20230383295A1.

The experiment addresses integrin receptors. The experiment in a line: cell-based or functional assay.

Consider “vitronectin with RGD domain mutated to RGE (knock-in mouse line Vtn^RGE/RGE) (from UniProt P29788 20-478) (ligand)”, for which the HRP-filled vesicles in endothelial cells of Vtn^RGE mice compared to wildtype animals turned out to be 2 fold.
